# Results as given in paper PMC10834534, “The NMR structure of the Ea22 lysogenic developmental protein from lambda bacteriophage” (Scientific Reports, 2024).
# B1: carboxy-terminal domain (CTD) fragment of λ Ea22 (102–182) (domain or fragment, bacteriophage λ)
# chain: SNEVREDGNQFLVVRHPGKTPVIKHCTGDLEEFLRQLIEQDPLVTIDIITHRYYGVGGQWVQDAGEYLHMMSDAGIRIKGEIETAV
# notes: Ea22 of bacteriophage lambda, carboxy-terminal domain, residues 102-182 of the 182-residue protein; gene synthesized by ATUM, in plasmid pD441NH; Uniformly 13C,15N (or 15N) labelled for NMR; a mixed 12C/13C dimer was made by mixing 12C/14N and 13C/15N proteins 1:1 in 6 M urea and diluting rapidly; Dimer printed as 21.4 kDa; also called λ Ea22 CTD; Ea22 CTD; not shown: 6xHis, N-terminal, kept
# Biological target: the molecule itself
# Assay: NMR solution structure; 0.6 mM in 5 mM Tris-Cl pH 7.6, 50 mM NaCl, 0.05% NaN3, 308 K; intermolecular distance restraints from a 3D 13C-filtered/13C-separated NOESY on a mixed 12C/13C sample
protein,measurement,value
B1,stoichiometry N,2
